Measured values: patent publication US20200024330A1

Key:
Test in all cases: cell-based or functional assay
[1] = biological target: HIV-1 Env of isolate 92UG024 (subtype D), on pseudovirus (HIV-1)
[2] = biological target: HIV-1 Env of isolate 92UG114 (subtype D), on pseudovirus (HIV-1)
[3] = biological target: HIV-1 Env of isolate 92WR024 (pseudovirus) (HIV-1)
[4] = biological target: HIV-1 Env of isolate 93TH305 (HIV-1)
[5] = biological target: HIV-1 Env of isolate 93WR029 (pseudovirus) (HIV-1)
[6] = biological target: HIV-1 Env of isolate 94 KE 105 (pseudovirus) (HIV-1)
[7] = biological target: HIV-1 Env of isolate 98CN006 (subtype CRF08 BC), on pseudovirus (HIV-1)
[8] = biological target: HIV-1 Env of isolate 98CN009 (subtype CRF07_BC), on pseudovirus (HIV-1)
[9] = biological target: HIV-1 Env of isolate APV_13 (HIV-1)
[10] = biological target: HIV-1 Env of isolate APV_6 (HIV-1)
[11] = biological target: HIV-1 Env of isolate MG RM-A-005 (pseudovirus) (HIV-1)
[12] = biological target: HIV-1 Env of isolate MG RM-A-006 (pseudovirus) (HIV-1)
[13] = biological target: HIV-1 Env of isolate MG RM-A-007 (pseudovirus) (HIV-1)
[14] = biological target: HIV-1 Env of isolate MG RM-A-010 (pseudovirus) (HIV-1)
[15] = biological target: HIV-1 Env of isolate MG RM-A-011 (pseudovirus) (HIV-1)
[16] = biological target: HIV-1 Env of isolate MG RM-A-014 (pseudovirus) (HIV-1)
[17] = biological target: HIV-1 Env of isolate MGRM-D-002 (subtype D), on pseudovirus (HIV-1)
[18] = biological target: HIV-1 Env of isolate MGRM-F1-017 (clade F), on pseudovirus (HIV-1)
[19] = biological target: HIV-1 Env of isolate MGRM-F1-021 (clade F), on pseudovirus (HIV-1)
[20] = biological target: HIV-1 Env of isolate QH0692.42 (subtype B) (HIV-1)
[21] = biological target: HIV-1 envelope glycoprotein (Env) of isolate MGRM-Chronic-B-011, on pseudovirus (HIV-1)
[22] = biological target: HIV-1 envelope glycoprotein (Env) of isolate MGRM-Chronic-B-020, on pseudovirus (HIV-1)
[23] = biological target: HIV-1 JR-CSF Env I423A (HIV-1 (isolate JR-CSF)) (UniProt P20871)
[24] = biological target: HIV-1 Env of isolate 94UG103 (clade A) (HIV-1)
[25] = biological target: HIV-1 Env of isolate APV13 (clade B) (HIV-1)
[26] = biological target: HIV-1 Env of isolate JRCSF (clade B) (HIV-1) (UniProt P20871)
[27] = biological target: HIV-1 Env of isolate MGRM-C-026 (clade C) (HIV-1)
[28] = biological target: HIV-1 Env of isolate MGRM-C-028 (clade C) (HIV-1)
[29] = biological target: HIV-1 Env of isolate AC10 (HIV-1)
[30] = biological target: HIV-1 Env of isolate CAP45 (HIV-1)
[31] = biological target: HIV-1 Env of isolate ZM214 (HIV-1)
[32] = biological target: HIV-1 JR-FL Env E168K (pseudovirus) (HIV-1 JR-FL)
[33] = biological target: HIV-1 CMU02 Env (pseudovirus) (HIV-1)
[34] = biological target: HIV-1 92UG024 Env (clade D pseudovirus) (HIV-1)
[35] = biological target: HIV-1 93IN905 Env (clade C pseudovirus) (HIV-1)
[36] = biological target: HIV-1 93UG077 Env (clade A pseudovirus) (HIV-1)
[37] = biological target: HIV-1 MGRM-AG-005 Env (clade AG pseudovirus) (HIV-1)
[38] = biological target: HIV-1 MGRM-C-028 Env (clade C pseudovirus) (HIV-1)

1443_C16 (PG16) (TCN-116) (antibody), sequence (VH): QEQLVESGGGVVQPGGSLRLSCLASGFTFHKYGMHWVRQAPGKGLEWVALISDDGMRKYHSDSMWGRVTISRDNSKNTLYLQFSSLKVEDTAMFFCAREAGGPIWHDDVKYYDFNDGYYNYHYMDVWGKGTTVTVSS
1443_C16 (PG16) (TCN-116) (antibody), sequence (VL): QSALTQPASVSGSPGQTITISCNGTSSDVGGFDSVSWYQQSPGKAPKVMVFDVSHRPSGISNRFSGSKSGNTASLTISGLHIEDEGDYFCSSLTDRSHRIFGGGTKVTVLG

VRC01 (antibody) gave an IC50, pseudovirus neutralization [1] of 0.576 µg/mL, an IC50, pseudovirus neutralization [2] of 0.33 µg/mL and an IC50 (µg/mL), pseudovirus neutralization [3] of 0.327 µg/mL. The IC50 [4] was 0.243 µg/mL, the IC50 (µg/mL), pseudovirus neutralization [5] was 1.57 µg/mL and the IC50 (µg/mL), pseudovirus neutralization [6] was 0.499 µg/mL. The IC50, pseudovirus neutralization [7] was 0.644 µg/mL, the IC50, pseudovirus neutralization [8] was 0.346 µg/mL and the IC50 [9] was 0.657 µg/mL. The IC50 [10] was 1.81 µg/mL, the IC50 (µg/mL), pseudovirus neutralization [11] was 0.095 µg/mL and the IC50 (µg/mL), pseudovirus neutralization [12] was 0.521 µg/mL. It also gave an IC50 (µg/mL), pseudovirus neutralization [13] of 12.6 µg/mL, an IC50 (µg/mL), pseudovirus neutralization [14] of 0.325 µg/mL and an IC50 (µg/mL), pseudovirus neutralization [15] of 0.273 µg/mL. The IC50 (µg/mL), pseudovirus neutralization [16] was 0.135 µg/mL and the IC50, pseudovirus neutralization [17] was 0.252 µg/mL.
PGV04 (antibody) showed an IC50 (µg/mL), single-round pseudovirus neutralization [18] of 2.38 µg/mL, an IC50 (µg/mL), single-round pseudovirus neutralization [19] of 0.031 µg/mL and an IC50 (µg/mL), pseudovirus neutralization [20] of 1.9 µg/mL. For the same substance, the IC50, pseudovirus neutralization [21] was 0.497 µg/mL and the IC50, pseudovirus neutralization [22] was 1.26 µg/mL.
With PGT-121 (antibody) the Fold IC50 increase relative to wild-type [23] was 3.3 fold.
For 5147_N06 (PGT-130) (antibody), the neutralization IC50 [24] was 0.635 µg/mL, the neutralization IC80 [24] was > 10 µg/mL and the neutralization IC90 [24] was > 10 µg/mL. For the same substance, the neutralization IC95 [24] was > 10 µg/mL, the neutralization IC50 [25] was 0.0345 µg/mL and the neutralization IC80 [25] was 0.573 µg/mL. The neutralization IC90 [25] was 2.88 µg/mL, the neutralization IC95 [25] was > 10 µg/mL and the neutralization IC50 [26] was 0.0089 µg/mL. For the same substance, the neutralization IC80 [26] was 0.0317 µg/mL, the neutralization IC90 [26] was 0.0669 µg/mL and the neutralization IC95 [26] was 0.134 µg/mL. The neutralization IC50 [27] was 0.0173 µg/mL, the neutralization IC80 [27] was 0.263 µg/mL and the neutralization IC90 [27] was 1.32 µg/mL. The neutralization IC95 [27] was 6.13 µg/mL, the neutralization IC50 [28] was > 10 µg/mL and the neutralization IC80 [28] was > 10 µg/mL. The neutralization IC90 [28] was > 10 µg/mL and the neutralization IC95 [28] was > 10 µg/mL.
With 1443_C16 (PG16) (TCN-116) (antibody) the IC50, pseudovirus neutralization (TZM-bl) [29] was < 0.01 µg/mL, the IC50, pseudovirus neutralization (TZM-bl) [30] was < 0.01 µg/mL and the IC50, pseudovirus neutralization (TZM-bl) [31] was > 25 µg/mL. The IC50 (ug/ml), neutralization [32] was 0.006 µg/mL.
5141_B17 (PGT-126) (antibody) was tested, and the IC50 [33] was > 10 µg/mL, the IC80 [33] was > 10 µg/mL and the IC90 [33] was > 10 µg/mL. The IC95 [33] was > 10 µg/mL.
With 4877_D15 (PGT-122) (antibody) the Neutralization by PGT-122, IC50 [34] was > 10 µg/mL, the Neutralization by PGT-122, IC80 [34] was > 10 µg/mL and the Neutralization by PGT-122, IC90 [34] was > 10 µg/mL. For the same substance, the Neutralization by PGT-122, IC95 [34] was > 10 µg/mL, the Neutralization by PGT-122, IC50 [35] was 0.0138 µg/mL and the Neutralization by PGT-122, IC80 [35] was 0.0505 µg/mL. The Neutralization by PGT-122, IC90 [35] was 0.108 µg/mL, the Neutralization by PGT-122, IC95 [35] was 0.217 µg/mL and the Neutralization by PGT-122, IC50 [36] was 0.191 µg/mL. The Neutralization by PGT-122, IC80 [36] was 0.931 µg/mL, the Neutralization by PGT-122, IC90 [36] was 2.1 µg/mL and the Neutralization by PGT-122, IC95 [36] was 3.88 µg/mL. The Neutralization by PGT-122, IC50 [37] was > 10 µg/mL, the Neutralization by PGT-122, IC80 [37] was > 10 µg/mL and the Neutralization by PGT-122, IC90 [37] was > 10 µg/mL. For the same substance, the Neutralization by PGT-122, IC95 [37] was > 10 µg/mL, the Neutralization by PGT-122, IC50 [38] was 2.06 µg/mL and the Neutralization by PGT-122, IC80 [38] was > 10 µg/mL. For the same substance, the Neutralization by PGT-122, IC90 [38] was > 10 µg/mL and the Neutralization by PGT-122, IC95 [38] was > 10 µg/mL.
